The target in the assay is ubiquitin (Homo sapiens (Human), UniProt P0CG48). As to the kind of experiment: not stated how the value was obtained. It is named in the context of the fluorescence polarization assay. On the technique in general: Polarisation of emitted light reports the rotation of a fluorescent probe.

B1: NEDD4-1 HECT domain (enzyme)
chain: GPLGSRDYKRKYEFFRRKLKKQNDIPNKFEMKLRRATVLEDSYRRIMGVKRADFLKARLWIEFDGEKGLDYGGVAREWFFLISKEMFNPYYGLFEYSATDNYTLQINPNSGLCNEDHLSYFKFIGRVAGMAVYHGKLLDGFFIRPFYKMMLHKPITLHDMESVDSEYYNSLRWILENDPTELDLRFIIDEELFGQTHQHELKNGGSEIVVTNKNKKEYIYLVIQWRFVNRIQKQMAAFKEGFFELIPQDLIKIFDENELELLMCGLGDVDVNDWREHTKYKNGYSANHQVIQWFWKAVLMMDSEKRIRLLQFVTGTSRVPMNGFAELYGSNGPQSFTVEQWGTPEKLPRAHTCFNRLDLPPYESFEELWDKLQMAIENTQGFDGVD
By Kd is commonly meant the constant that tells how readily two partners part at equilibrium. Read a high Kd as lower affinity. With B1, the Kd was 11 µM.

The values are drawn from patent US20170152228A1, “SCREENING METHODS FOR THE BINDING AFFINITY OF CHEMICAL […] TO BIOLOGICAL MOLECULES AND NEDD4-1 […] THE SCREENING METHODS” (Northwestern University, published 2017).
